Test results taken from paper PMC4252739 (Cell host & microbe, 2014).

How the values were obtained:
[1] = molecular target: HIV-1 CA A14C/E45C cross-linked tubular assemblies (HIV-1); assay: co-sedimentation
SEC [2] = molecular target: the molecule itself; assay: SEC
SEC [3] = molecular target: the molecule itself; assay: SEC; remark: listed apart in the source

B1: MxB_(84YRGK) (6xHis-MxB residues 84-715 with YRGK487-490AAAA) (domain or fragment)
chain: GPENNLYSQYEQKVRPCIDLIDSLRALGVEQDLALPAIAVIGDQSSGKSSVLEALSGVALPRGSGIVTRCPLVLKLKKQPCEAWAGRISYRNTELELQDPGQVEKEIHKAQNVMAGNGRGISHELISLEITSPEVPDLTIIDLPGITRVAVDNQPRDIGLQIKALIKKYIQRQQTINLVVVPCNVDIATTEALSMAHEVDPEGDRTIGILTKPDLMDRGTEKSVMNVVRNLTYPLKKGYMIVKCRGQQEITNRLSLAEATKKEITFFQTHPYFRVLLEEGSATVPRLAERLTTELIMHIQKSLPLLEGQIRESHQKATEELRRCGADIPSQEADKMFFLIEKIKMFNQDIEKLVEGEEVVRENETRLYNKIREDFKNWVGILATNTQKVKNIIHEEVEKYEKQAAAAELLGFVNYKTFEIIVHQYIQQLVEPALSMLQKAMEIIQQAFINVAKKHFGEFFNLNQTVQSTIEDIKVKHTAKAENMIQLQFRMEQMVFCQDQIYSVVLKKVREEIFNPLGTPSQNMKLNSHFPSNESSVSSFTEIGIHLNAYFLETSKRLANQIPFIIQYFMLRENGDSLQKAMMQILQEKNRYSWLLQEQSETATKRRILKERIYRLTQARHALCQFSSKEIH
Q: For B1, which percent co-sedimented with CA [1] is on record?
A: 9%

B2: MxB_(84YRGK/M574D) (domain or fragment, UniProt P20592 84-715, looked up)
chain: GPENNLYSQYEQKVRPCIDLIDSLRALGVEQDLALPAIAVIGDQSSGKSSVLEALSGVALPRGSGIVTRCPLVLKLKKQPCEAWAGRISYRNTELELQDPGQVEKEIHKAQNVMAGNGRGISHELISLEITSPEVPDLTIIDLPGITRVAVDNQPRDIGLQIKALIKKYIQRQQTINLVVVPCNVDIATTEALSMAHEVDPEGDRTIGILTKPDLMDRGTEKSVMNVVRNLTYPLKKGYMIVKCRGQQEITNRLSLAEATKKEITFFQTHPYFRVLLEEGSATVPRLAERLTTELIMHIQKSLPLLEGQIRESHQKATEELRRCGADIPSQEADKMFFLIEKIKMFNQDIEKLVEGEEVVRENETRLYNKIREDFKNWVGILATNTQKVKNIIHEEVEKYEKQAAAAELLGFVNYKTFEIIVHQYIQQLVEPALSMLQKAMEIIQQAFINVAKKHFGEFFNLNQTVQSTIEDIKVKHTAKAENMIQLQFRDEQMVFCQDQIYSVVLKKVREEIFNPLGTPSQNMKLNSHFPSNESSVSSFTEIGIHLNAYFLETSKRLANQIPFIIQYFMLRENGDSLQKAMMQILQEKNRYSWLLQEQSETATKRRILKERIYRLTQARHALCQFSSKEIH
Q: Does B2 bind (SEC [2])?
A: binds

B3: MxB-HA K663D (natural protein)
chain: MSKAHKPWPYRRRSQFSSRKYLKKEMNSFQQQPPPFGTVPPQMMFPPNWQGAEKDAAFLAKDFNFLTLNNQPPPGNRSQPRAMGPENNLYSQYEQKVRPCIDLIDSLRALGVEQDLALPAIAVIGDQSSGKSSVLEALSGVALPRGSGIVTRCPLVLKLKKQPCEAWAGRISYRNTELELQDPGQVEKEIHKAQNVMAGNGRGISHELISLEITSPEVPDLTIIDLPGITRVAVDNQPRDIGLQIKALIKKYIQRQQTINLVVVPCNVDIATTEALSMAHEVDPEGDRTIGILTKPDLMDRGTEKSVMNVVRNLTYPLKKGYMIVKCRGQQEITNRLSLAEATKKEITFFQTHPYFRVLLEEGSATVPRLAERLTTELIMHIQKSLPLLEGQIRESHQKATEELRRCGADIPSQEADKMFFLIEKIKMFNQDIEKLVEGEEVVRENETRLYNKIREDFKNWVGILATNTQKVKNIIHEEVEKYEKQYRGKELLGFVNYKTFEIIVHQYIQQLVEPALSMLQKAMEIIQQAFINVAKKHFGEFFNLNQTVQSTIEDIKVKHTAKAENMIQLQFRMEQMVFCQDQIYSVVLKKVREEIFNPLGTPSQNMKLNSHFPSNESSVSSFTEIGIHLNAYFLETSKRLANQIPFIIQYFMLRENGDSLQDAMMQILQEKNRYSWLLQEQSETATKRRILKERIYRLTQARHALCQFSSKEIH
Q: With B3 as the binder, how does the binding specificity (percent of input co-pelleted, background corrected) [1] read?
A: 27%

B4: MBP-MxB_(1-715 IKM/DDD) (natural protein, UniProt P20592 1-715, looked up)
chain: MSKAHKPWPYRRRSQFSSRKYLKKEMNSFQQQPPPFGTVPPQMMFPPNWQGAEKDAAFLAKDFNFLTLNNQPPPGNRSQPRAMGPENNLYSQYEQKVRPCIDLIDSLRALGVEQDLALPAIAVIGDQSSGKSSVLEALSGVALPRGSGIVTRCPLVLKLKKQPCEAWAGRISYRNTELELQDPGQVEKEIHKAQNVMAGNGRGISHELISLEITSPEVPDLTIIDLPGITRVAVDNQPRDIGLQIKALIKKYIQRQQTINLVVVPCNVDIATTEALSMAHEVDPEGDRTIGILTKPDLMDRGTEKSVMNVVRNLTYPLKKGYMIVKCRGQQEITNRLSLAEATKKEITFFQTHPYFRVLLEEGSATVPRLAERLTTELIMHIQKSLPLLEGQIRESHQKATEELRRCGADIPSQEADKMFFLDEKIKMFNQDIEKLVEGEEVVRENETRLYNKIREDFKNWVGILATNTQKVKNIIHEEVEKYEKQYRGKELLGFVNYKTFEIIVHQYIQQLVEPALSMLQKAMEIIQQAFINVAKKHFGEFFNLNQTVQSTIEDIKVKHTAKAENMIQLQFRMEQMVFCQDQIYSVVLKKVREEIFNPLGTPSQNMKLNSHFPSNESSVSSFTEIGIHLNAYFLETSKRLANQIPFIIQYFMLRENGDSLQDAMDQILQEKNRYSWLLQEQSETATKRRILKERIYRLTQARHALCQFSSKEIH
Q: For B4, which “stoichiometry N” value (SEC [3]) is on record?
A: 2

B5: MxB-HA Y651D (natural protein)
chain: MSKAHKPWPYRRRSQFSSRKYLKKEMNSFQQQPPPFGTVPPQMMFPPNWQGAEKDAAFLAKDFNFLTLNNQPPPGNRSQPRAMGPENNLYSQYEQKVRPCIDLIDSLRALGVEQDLALPAIAVIGDQSSGKSSVLEALSGVALPRGSGIVTRCPLVLKLKKQPCEAWAGRISYRNTELELQDPGQVEKEIHKAQNVMAGNGRGISHELISLEITSPEVPDLTIIDLPGITRVAVDNQPRDIGLQIKALIKKYIQRQQTINLVVVPCNVDIATTEALSMAHEVDPEGDRTIGILTKPDLMDRGTEKSVMNVVRNLTYPLKKGYMIVKCRGQQEITNRLSLAEATKKEITFFQTHPYFRVLLEEGSATVPRLAERLTTELIMHIQKSLPLLEGQIRESHQKATEELRRCGADIPSQEADKMFFLIEKIKMFNQDIEKLVEGEEVVRENETRLYNKIREDFKNWVGILATNTQKVKNIIHEEVEKYEKQYRGKELLGFVNYKTFEIIVHQYIQQLVEPALSMLQKAMEIIQQAFINVAKKHFGEFFNLNQTVQSTIEDIKVKHTAKAENMIQLQFRMEQMVFCQDQIYSVVLKKVREEIFNPLGTPSQNMKLNSHFPSNESSVSSFTEIGIHLNAYFLETSKRLANQIPFIIQDFMLRENGDSLQKAMMQILQEKNRYSWLLQEQSETATKRRILKERIYRLTQARHALCQFSSKEIH
Q: B5 was tested. Which binding specificity (percent of input co-pelleted, background corrected) [1] did it give?
A: < 0.1%

B6: MxB-HA M666D (natural protein)
chain: MSKAHKPWPYRRRSQFSSRKYLKKEMNSFQQQPPPFGTVPPQMMFPPNWQGAEKDAAFLAKDFNFLTLNNQPPPGNRSQPRAMGPENNLYSQYEQKVRPCIDLIDSLRALGVEQDLALPAIAVIGDQSSGKSSVLEALSGVALPRGSGIVTRCPLVLKLKKQPCEAWAGRISYRNTELELQDPGQVEKEIHKAQNVMAGNGRGISHELISLEITSPEVPDLTIIDLPGITRVAVDNQPRDIGLQIKALIKKYIQRQQTINLVVVPCNVDIATTEALSMAHEVDPEGDRTIGILTKPDLMDRGTEKSVMNVVRNLTYPLKKGYMIVKCRGQQEITNRLSLAEATKKEITFFQTHPYFRVLLEEGSATVPRLAERLTTELIMHIQKSLPLLEGQIRESHQKATEELRRCGADIPSQEADKMFFLIEKIKMFNQDIEKLVEGEEVVRENETRLYNKIREDFKNWVGILATNTQKVKNIIHEEVEKYEKQYRGKELLGFVNYKTFEIIVHQYIQQLVEPALSMLQKAMEIIQQAFINVAKKHFGEFFNLNQTVQSTIEDIKVKHTAKAENMIQLQFRMEQMVFCQDQIYSVVLKKVREEIFNPLGTPSQNMKLNSHFPSNESSVSSFTEIGIHLNAYFLETSKRLANQIPFIIQYFMLRENGDSLQKAMDQILQEKNRYSWLLQEQSETATKRRILKERIYRLTQARHALCQFSSKEIH
Q: Which binding specificity (percent of input co-pelleted, background corrected) [1] does the source give for B6 here?
A: 26%

B7: MBP-MxB_(1-715 IK/DD) (natural protein, UniProt P20592 1-715, looked up)
chain: MSKAHKPWPYRRRSQFSSRKYLKKEMNSFQQQPPPFGTVPPQMMFPPNWQGAEKDAAFLAKDFNFLTLNNQPPPGNRSQPRAMGPENNLYSQYEQKVRPCIDLIDSLRALGVEQDLALPAIAVIGDQSSGKSSVLEALSGVALPRGSGIVTRCPLVLKLKKQPCEAWAGRISYRNTELELQDPGQVEKEIHKAQNVMAGNGRGISHELISLEITSPEVPDLTIIDLPGITRVAVDNQPRDIGLQIKALIKKYIQRQQTINLVVVPCNVDIATTEALSMAHEVDPEGDRTIGILTKPDLMDRGTEKSVMNVVRNLTYPLKKGYMIVKCRGQQEITNRLSLAEATKKEITFFQTHPYFRVLLEEGSATVPRLAERLTTELIMHIQKSLPLLEGQIRESHQKATEELRRCGADIPSQEADKMFFLDEKIKMFNQDIEKLVEGEEVVRENETRLYNKIREDFKNWVGILATNTQKVKNIIHEEVEKYEKQYRGKELLGFVNYKTFEIIVHQYIQQLVEPALSMLQKAMEIIQQAFINVAKKHFGEFFNLNQTVQSTIEDIKVKHTAKAENMIQLQFRMEQMVFCQDQIYSVVLKKVREEIFNPLGTPSQNMKLNSHFPSNESSVSSFTEIGIHLNAYFLETSKRLANQIPFIIQYFMLRENGDSLQDAMMQILQEKNRYSWLLQEQSETATKRRILKERIYRLTQARHALCQFSSKEIH
Q: B7 was tested. Which “stoichiometry N” value (SEC [3]) did it give?
A: 2

Q: What about the binding specificity (percent of input co-pelleted, background corrected) [1] of the same binder?
A: 40%

B8: MxB-HA E681A (natural protein)
chain: MSKAHKPWPYRRRSQFSSRKYLKKEMNSFQQQPPPFGTVPPQMMFPPNWQGAEKDAAFLAKDFNFLTLNNQPPPGNRSQPRAMGPENNLYSQYEQKVRPCIDLIDSLRALGVEQDLALPAIAVIGDQSSGKSSVLEALSGVALPRGSGIVTRCPLVLKLKKQPCEAWAGRISYRNTELELQDPGQVEKEIHKAQNVMAGNGRGISHELISLEITSPEVPDLTIIDLPGITRVAVDNQPRDIGLQIKALIKKYIQRQQTINLVVVPCNVDIATTEALSMAHEVDPEGDRTIGILTKPDLMDRGTEKSVMNVVRNLTYPLKKGYMIVKCRGQQEITNRLSLAEATKKEITFFQTHPYFRVLLEEGSATVPRLAERLTTELIMHIQKSLPLLEGQIRESHQKATEELRRCGADIPSQEADKMFFLIEKIKMFNQDIEKLVEGEEVVRENETRLYNKIREDFKNWVGILATNTQKVKNIIHEEVEKYEKQYRGKELLGFVNYKTFEIIVHQYIQQLVEPALSMLQKAMEIIQQAFINVAKKHFGEFFNLNQTVQSTIEDIKVKHTAKAENMIQLQFRMEQMVFCQDQIYSVVLKKVREEIFNPLGTPSQNMKLNSHFPSNESSVSSFTEIGIHLNAYFLETSKRLANQIPFIIQYFMLRENGDSLQKAMMQILQEKNRYSWLLQAQSETATKRRILKERIYRLTQARHALCQFSSKEIH
Q: How did the binding specificity (percent of input co-pelleted, background corrected) [1] turn out when B8 was run?
A: 9.8%
